Measured values taken from the supplement of paper PMC12764529.
± gives the half width of the 95% confidence interval.

Assay: folding stability dG unfold from chymotrypsin proteolysis; higher = more stable
In short: (§1)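 Only designs with AlphaFold2 dimer inter-PAE above 15 were retained; each was a mini-protein under 80 residues with no cysteine, in a PA-tagged cDNA display construct. After digestion with trypsin and chymotrypsin and sequencing, K50 was inferred by Bayesian fitting of counts, and unfolding free energy was derived per protease or combined against a sequence-predicted unfolded-state K50 and a shared folded-state K50.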

Sequence | folding stability dG unfold
SAGGAPSSFSTSSDPDGTQLLVVTEPGSGKPRTVRIPPGLNEAVTIPPSRSVSSVELVRVSPASPALLSAGG [r13_122_JUSTAS] | -0.734 ± 0.18 kcal/mol
SAGGMKVTVYPDGTVSVEIEPGQTLTVSLGDKEYTVTAEYPSITITTTPVPVPPPAVPPENVDPSLVSAGGS [r16_600_JUSTAS] | 0.984 ± 0.051 kcal/mol
SAGGSAGGSKNMVMVEIPFEHKVKQPDPPDGKWRQHEHKPTIPYMIPPEDAEELLNSPALKKISAGGSAGGS [r12_1015_TrROS] | 0.0107 ± 0.21 kcal/mol
SAGGWQKVEFMIEIPGGGSLDQAKDEVEEFADYLRKKAGFKDVDVDVQVDPDGWVYVMVEIEVPPNASAGGS [r8_3_TrROS] | 2.24 ± 0.042 kcal/mol
SAGGTRTIWFPVDDIREALPPDNIKKVEVEPVGPENNWYKVTIEFPDYKIEIQYYPEEPGMFMVTITDSAGG [r13_942_TrROS] | 2.71 ± 0.043 kcal/mol
WLKFPFPIYNPGFGRPAKFEIELWPDGQLQVTWNGQPILSIPIRIVPPPEVEVDPEYDPNGKEKPKWKYPGS [r1_496_TrROS] | 1.81 ± 0.16 kcal/mol
SAGGSAGGSMEVNLKVTVTYPDGTVVELEIPKVSTEDGKSVEDVAKEIEALPDVKEVEVEIVESAGGSAGGS [r12_199_JUSTAS] | 2.03 ± 0.1 kcal/mol
SAGGSAGGSAGGDNFEIEPDISWNPDYGYISIDWTVTIGGKEQPFTIMIPVRLPPPPEDDSAGGSAGGSAGG [r7_413_TrROS] | 0.712 ± 0.15 kcal/mol
SAGGSAGGSAGGMTLRIRVRNKDGKVLEIEVEVDEDKTPEEVARELAKKLNVEKVEIFPSAGGSAGGSAGGS [r10_400_TrROS_Hall] | 2.32 ± 0.038 kcal/mol
SAGGKPPKIVVKVEKAPNPETGTYTYKVVLYDPVTGKAYVKPVKTKTPEELEKKAKEVAEELAKELASAGGS [r8_480_TrMRF] | 1.34 ± 0.12 kcal/mol
SAGGSAGGSAGNYMVRLEIEMPENGRKVEWMVPEDDPEEILEKFPWLKEHGMEVKIEVFPSAGGSAGGSAGG [r17_176_TrROS] | 0.638 ± 0.08 kcal/mol

Assay: folding stability dG unfold from trypsin proteolysis; higher = more stable
In short: as §1

Sequence | folding stability dG unfold
SAGGSEEKVFEFEVVEVTSVEVKEDGTVTIEVTVRLENGLLLTVRVTFDLATNEVTIEVELRPLPESAGGSA [r2_321_TrROS_Hall] | 3.38 ± 0.35 kcal/mol
SAGGSAGGSAGGSKTLTPEEIKKLLDEAKKKGYKTVKITVKNKNGKTYTFTIKIPKEDLSAGGSAGGSAGGS [r4_342_TrROS_Hall] | 2.76 ± 0.18 kcal/mol
SAGGSAGGSAGETVTLTLTVTVTRTYYDAETGEEVEQETETRTLTLTMSKEELERLLKELSAGGSAGGSAGG [r17_283_TrROS_Hall] | 3.28 ± 0.13 kcal/mol
SAGGSAGGSAGSLTFQLPNGTEITVTEITLEIKLPNGDVILIKITVDPEPPVTTEVTFVNSAGGSAGGSAGG [r11_804_JUSTAS] | 1.8 ± 0.066 kcal/mol
SAGGSAGGSPGKPKTIPVEMVFFNPEDGYFFEMRSEIYVPPDGNLQIDISIELYPVPPNAPLISAGGSAGGS [r12_116_TrROS] | 2.33 ± 0.2 kcal/mol
SAGGSAETLVITLPPELEGLSEEELLALLKALLPPGAEITEIRVERLPDGSLRVTVTVRVPPPEEPSAGGSA [r15_451_TrROS_Hall] | 3.33 ± 0.24 kcal/mol
SAGGSAGGSAGGKPKVIEIEITDKNGKKRKIKLIEKDGYVYLYDEKTGKLVKKFKLKDLSAGGSAGGSAGGS [r10_589_TrROS_Hall] | 3.04 ± 0.097 kcal/mol
SAMVLVKIELYDPENEEPLATAEFVVPEEDLEAFVEEAKKIFGVAEDAFIKVEAAPLEPLTDESGEEVLSAG [r14_297_TrMRF] | 2.08 ± 0.12 kcal/mol
NKAQKLARSLARKFMRPHGYPMEIDPENNSIRFPNGEPIMEIPIDIVLLDDDGKIVEEINIPIRIRMRPPKS [r1_318_TrROS] | 0.695 ± 0.16 kcal/mol
SAGGSAGGSADELLDKLLNHKWLRDAMEKAPPGMEEIDIELPDGGKIRIRRTPNGGFRLEPSAGGSAGGSAG [r3_124_TrROS] | 1.904 ± 0.019 kcal/mol
SAMLRIRVEYEDGRVEDIVIPLAGEDPPFGKEAVEEAAERIAKEVEEKYGLKNVKTEVEAFPVSPEELLSAG [r14_378_TrMRF] | 0.326 ± 0.096 kcal/mol
SAGGSAGGSKTIKIEIEKMSEEELKNLTAEEIAKLLGVKEVKVTKEKIEITLTEEELKKLEKKSAGGSAGGS [r12_178_TrROS_Hall] | 0.257 ± 0.099 kcal/mol
SAGGSATKELVLEIAEEIAPRFQKEGWPIKRVTVKVVRTPDGQVTIPVRIRFPDGKPIMQWNITIPSAGGSA [r15_232_TrROS] | 1.03 ± 0.055 kcal/mol
SAGGSAMLENLPELDIKIKVEYKAEILPDGSLLIPAKIELEIGDKKFEFEAKILINPNGEITIEIGSAGGSA [r15_891_TrMRF] | 2.97 ± 0.26 kcal/mol
SAGLIKIERTGDKLTITIPLKGAPPGAQVRIMVFTDGKVEEHWIPPGKEVEITIPPDNIHIFIQIYPPDSAG [r5_867_TrROS] | 3.22 ± 0.38 kcal/mol
SAGGKIIAEGEFELEDGYVVRVKVEYDEETGELRVEVEVFEVEVELPEVEVKREFSDEELTEEEKEASAGGS [r8_461_TrROS_Hall] | 0.897 ± 0.19 kcal/mol
SAGMITLPTRGPEELIERLRAIAEELGLSEEDIEQFLRDLAEHATIEQDGDLLLITFQPPVPALPGEPESAG [r5_717_TrMRF] | 1.23 ± 0.071 kcal/mol
SAGGSAGGSAGGMVIRLEDGRTLVFETREEAEEAAKALAEELGLKEVKVEIVEVPLEELPSAGGSAGGSAGG [r7_839_TrROS_Hall] | 2.11 ± 0.073 kcal/mol
SAGGSAGGSAGGSTPSFTPVLELEFEFENDVVVRVRLYRLPDEDTYLLEVEVAPDSLKDSAGGSAGGSAGGS [r4_163_TrMRF] | 2.88 ± 0.093 kcal/mol
SAGTIHFMVPRDEMSDEEAEDIVNTIAKHFPGFKIDRIYWHKQPDPDGDPRRMYHVEIKIKIPLPPGMKSAG [r5_835_TrROS] | 1.29 ± 0.022 kcal/mol
SAGGMKTFTLENPPLAPPDRPLGGSTLKLPDGTVLVRINLPSGETILLPSYEELEKLKASGEPVSVTASSAG [r5_42_JUSTAS] | 0.285 ± 0.055 kcal/mol
